From US20240366788A1 (DUKE UNIVERSITY, published 2024)

Biological target: T1, H2-Q7 (QA2), GPI-anchored MHC class Ib molecule on murine T cells (mouse, UniProt P14429 22-334; P01887 21-119)
T1 construct: whole, on cells; also called H2-Q7/MHC-I
T1 sequence (MHC heavy, looked up): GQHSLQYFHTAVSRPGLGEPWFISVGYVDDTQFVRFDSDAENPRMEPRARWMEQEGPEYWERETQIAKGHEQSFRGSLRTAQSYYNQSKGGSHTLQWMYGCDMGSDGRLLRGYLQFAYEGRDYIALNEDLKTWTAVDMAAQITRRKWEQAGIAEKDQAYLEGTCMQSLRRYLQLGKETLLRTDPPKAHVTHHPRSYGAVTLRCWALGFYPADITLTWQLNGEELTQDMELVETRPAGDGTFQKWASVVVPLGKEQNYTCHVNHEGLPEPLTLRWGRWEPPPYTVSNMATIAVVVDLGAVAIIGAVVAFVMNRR
T1 sequence (b2m, looked up): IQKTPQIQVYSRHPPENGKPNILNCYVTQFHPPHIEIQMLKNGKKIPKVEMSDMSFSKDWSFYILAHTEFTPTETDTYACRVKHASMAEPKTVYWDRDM
Experiment: qPCR of surface-bound viral genomes on C57BL/6J T cells, 1 hr at 4 C, with against without PI-PLC pre-treatment

B1: Ark313 AAV capsid (AAV6 capsid variant with 454-VVNPAEG-460) (other)
chain: MAADGYLPDWLEDNLSEGIREWWDLKPGAPKPKANQQKQDDGRGLVLPGYKYLGPFNGLDKGEPVNAADAAALEHDKAYDQQLKAGDNPYLRYNHADAEFQERLQEDTSFGGNLGRAVFQAKKRVLEPFGLVEEGAKTAPGKKRPVEQSPQEPDSSSGIGKTGQQPAKKRLNFGQTGDSESVPDPQPLGEPPATPAAVGPTTMASGGGAPMADNNEGADGVGNASGNWHCDSTWLGDRVITTSTRTWALPTYNNHLYKQISSASTGASNDNHYFGYSTPWGYFDFNRFHCHFSPRDWQRLINNNWGFRPKRLNFKLFNIQVKEVTTNDGVTTIANNLTSTVQVFSDSEYQLPYVLGSAHQGCLPPFPADVFMIPQYGYLTLNNGSQAVGRSSFYCLEYFPSQMLRTGNNFTFSYTFEDVPFHSSYAHSQSLDRLMNPLIDQYLYYLNRTQNQSVVNPAEGLLFSRGSPAGMSVQPKNWLPGPCYRQQRVSKTKTDNNNSNFTWTGASKYNLNGRESIINPGTAMASHKDDKDKFFPMSGVMIFGKESAGASNTALDNVMITDEEEIKATNPVATERFGTVAVNLQSSSTDPATGDVHVMGALPGMVWQDRDVYLQGPIWAKIPHTDGHFHPSPLMGGFGLKHPPPQILIKNTPVPANPPAEFSATKFASFITQYSTGQVSVEIEWELQKENSKRWNPEVQYTSNYAKSANVDFTVDNNGLYTEPRPIGTRYLTRPL
- fold reduction in bound virus per cell after PI-PLC treatment (GPI cleavage): ~10 fold
